The values that follow come from paper PMC5129185.

The target of this series is TTP TZF (RBD) (Homo sapiens, UniProt P26651 102-170). Put plainly: NMR.
Sequence of TTP TZF (RBD) (P26651 102-170): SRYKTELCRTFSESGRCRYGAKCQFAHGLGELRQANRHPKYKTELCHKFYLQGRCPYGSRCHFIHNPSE

Consider UUUUAUUUAUUUU (ssRNA) [ARE13 (NMR)], for which the binding result was “binds”.
